Test results as given in US20240270846A1 (published 2024).
Residue numbers refer to the chain shown, from its start. Numbers in names are those of the source.

B1: CE115HA000/GLS3000 P95L one-arm antibody (antibody, human IgG1, kappa, L234A L235A, N297A, name in Kabat numbering)
heavy: QVQLVESGGGVVQPGRSLRLSCAASGFTFSNAWMHWVRQAPGKGLEWVAQIKAKSNNYATYYAESVKGRFTISRDDSKNSLYLQMNSLKTEDTAVYYCRYVHYGAYYGVDAWGQGTTVTVSSASTKGPSVFPLAPSSKSTSGGTAALGCLVKDYFPEPVTVSWNSGALTSGVHTFPAVLQSSGLYSLSSVVTVPSSSLGTQTYICNVNHKPSNTKVDKKVEPKSCDKTHTCPPCPAPEAAGGPSVFLFPPKPKDTLMISRTPEVTCVVVDVSHEDPEVKFNWYVDGVEVHNAKTKPREEQYASTYRVVSVLTVLHQDWLNGKEYKCKVSNKALPAPIEKTISKAKGQPREPQVYTLPPSRCELTKNQVSLSCAVKGFYPSDIAVEWESNGQPENNYKTTPPVLDSDGSFFLVSKLTVDKSRWQQGNVFSCSVMHEALHNHYTQKSLSLSPDYKDDDDK
chain: EPKSSDKTHTCPPCPAPELLGGPSVFLFPPKPKDTLMISRTPEVTCVVVDVSHEDPEVKFNWYVDGVEVHNAKTKPREEQYNSTYRVVSVLTVLHQDWLNGKEYKCKVSNKALPAPIEKTISKAKGQPREPQVCTLPPSRDELTKNQVSLWCLVKGFYPSDIAVEWESNGQPENNYKTTPPVLDSDGSFFLYSKLTVDKSRWQQGNVFSCSVMHEALHNRYTQKSLSLSP
light: DIVMTQSPLSLPVTPGEPASISCRSSQSLVHSNRNTYLHWYQQKPGQAPRLLIYKVSNRFSGVPDRFSGSGSGTDFTLKISRVEAEDVGVYYCGQGTQVLYTFGQGTKLEIKRTVAAPSVFIFPPSDEQLKSGTASVVCLLNNFYPREAKVQWKVDNALQSGNSQESVTEQDSKDSTYSLSSTLTLSKADYEKHKVYACEVTHQGLSSPVTKSFNRGEC
notes: one-arm IgG1
B2: CE115HA000/GLS3000 Q90D one-arm antibody (antibody, human IgG1, kappa, L234A L235A, N297A, name in Kabat numbering)
heavy: B1 heavy
chain: B1 chain
light: B1 light with Q95D, L100P
notes: one-arm IgG1
B3: CE115HA000/GLS3000 S52Y one-arm antibody (antibody, human IgG1, kappa, L234A L235A, N297A, name in Kabat numbering)
heavy: B1 heavy
chain: B1 chain
light: B1 light with S57Y, L100P
notes: one-arm IgG1
B4: CE115HA000/GLS3000 R54S one-arm antibody (antibody, human IgG1, kappa, L234A L235A, N297A, name in Kabat numbering)
heavy: B1 heavy
chain: B1 chain
light: B1 light with R59S, L100P
notes: one-arm IgG1
B5: CE115HA000/GLS3000 S56T one-arm antibody (antibody, human IgG1, kappa, L234A L235A, N297A, name in Kabat numbering)
heavy: B1 heavy
chain: B1 chain
light: B1 light with S61T, L100P
notes: one-arm IgG1
B6: CE115HA000/GLS3000 S52D one-arm antibody (antibody, human IgG1, kappa, L234A L235A, N297A, name in Kabat numbering)
heavy: B1 heavy
chain: B1 chain
light: B1 light with S57D, L100P
notes: one-arm IgG1
B7: CE115HA000/GLS3000 Q93D one-arm antibody (antibody, human IgG1, kappa, L234A L235A, N297A, name in Kabat numbering)
heavy: B1 heavy
chain: B1 chain
light: B1 light with Q98D, L100P
notes: one-arm IgG1
B8: CE115HA000/GLS3000 S56V one-arm antibody (antibody, human IgG1, kappa, L234A L235A, N297A, name in Kabat numbering)
heavy: B1 heavy
chain: B1 chain
light: B1 light with S61V, L100P
notes: one-arm IgG1
B9: CE115HA000/GLS3000 S56P one-arm antibody (antibody, human IgG1, kappa, L234A L235A, N297A, name in Kabat numbering)
heavy: B1 heavy
chain: B1 chain
light: B1 light with S61P, L100P
notes: one-arm IgG1
B10: CE115HA000/GLS3000 S56R one-arm antibody (antibody, human IgG1, kappa, L234A L235A, N297A, name in Kabat numbering)
heavy: B1 heavy
chain: B1 chain
light: B1 light with S61R, L100P
notes: one-arm IgG1
B11: CE115HA000/GLS3000 Q90E one-arm antibody (antibody, human IgG1, kappa, L234A L235A, N297A, name in Kabat numbering)
heavy: B1 heavy
chain: B1 chain
light: B1 light with Q95E, L100P
notes: one-arm IgG1
B12: CE115HA000/GLS3000 S56F one-arm antibody (antibody, human IgG1, kappa, L234A L235A, N297A, name in Kabat numbering)
heavy: B1 heavy
chain: B1 chain
light: B1 light with S61F, L100P
notes: one-arm IgG1
B13: CE115HA000/GLS3000 S56L one-arm antibody (antibody, human IgG1, kappa, L234A L235A, N297A, name in Kabat numbering)
heavy: B1 heavy
chain: B1 chain
light: B1 light with S61L, L100P
notes: one-arm IgG1
B14: CE115HA000/GLS3000 S56H one-arm antibody (antibody, human IgG1, kappa, L234A L235A, N297A, name in Kabat numbering)
heavy: B1 heavy
chain: B1 chain
light: B1 light with S61H, L100P
notes: one-arm IgG1
B15: CE115HA000/GLS3000 R54Q one-arm antibody (antibody, human IgG1, kappa, L234A L235A, N297A, name in Kabat numbering)
heavy: B1 heavy
chain: B1 chain
light: B1 light with R59Q, L100P
notes: one-arm IgG1
B16: CE115HA000/GLS3000 Q93A one-arm antibody (antibody, human IgG1, kappa, L234A L235A, N297A, name in Kabat numbering)
heavy: B1 heavy
chain: B1 chain
light: B1 light with Q98A, L100P
notes: one-arm IgG1
B17: CE115HA000/GLS3000 R54D one-arm antibody (antibody, human IgG1, kappa, L234A L235A, N297A, name in Kabat numbering)
heavy: B1 heavy
chain: B1 chain
light: B1 light with R59D, L100P
notes: one-arm IgG1
B18: CE115HA000/GLS3000 S56N one-arm antibody (antibody, human IgG1, kappa, L234A L235A, N297A, name in Kabat numbering)
heavy: B1 heavy
chain: B1 chain
light: B1 light with S61N, L100P
notes: one-arm IgG1
B19: CE115HA000/GLS3000 R54T one-arm antibody (antibody, human IgG1, kappa, L234A L235A, N297A, name in Kabat numbering)
heavy: B1 heavy
chain: B1 chain
light: B1 light with R59T, L100P
notes: one-arm IgG1
B20: CE115HA000/GLS3000 R54W one-arm antibody (antibody, human IgG1, kappa, L234A L235A, N297A, name in Kabat numbering)
heavy: B1 heavy
chain: B1 chain
light: B1 light with R59W, L100P
notes: one-arm IgG1
B21: CE115HA000/GLS3000 S56E one-arm antibody (antibody, human IgG1, kappa, L234A L235A, N297A, name in Kabat numbering)
heavy: B1 heavy
chain: B1 chain
light: B1 light with S61E, L100P
notes: one-arm IgG1
B22: CE115HA000/GLS3000 S56G one-arm antibody (antibody, human IgG1, kappa, L234A L235A, N297A, name in Kabat numbering)
heavy: B1 heavy
chain: B1 chain
light: B1 light with S61G, L100P
notes: one-arm IgG1
B23: CE115HA000/GLS3000 Q93E one-arm antibody (antibody, human IgG1, kappa, L234A L235A, N297A, name in Kabat numbering)
heavy: B1 heavy
chain: B1 chain
light: B1 light with Q98E, L100P
notes: one-arm IgG1
B24: CE115HA000/GLS3000 S56Q one-arm antibody (antibody, human IgG1, kappa, L234A L235A, N297A, name in Kabat numbering)
heavy: B1 heavy
chain: B1 chain
light: B1 light with S61Q, L100P
notes: one-arm IgG1
B25: CE115HA000/GLS3000 S56M one-arm antibody (antibody, human IgG1, kappa, L234A L235A, N297A, name in Kabat numbering)
heavy: B1 heavy
chain: B1 chain
light: B1 light with S61M, L100P
notes: one-arm IgG1
B26: CE115HA000/GLS3000 S56K one-arm antibody (antibody, human IgG1, kappa, L234A L235A, N297A, name in Kabat numbering)
heavy: B1 heavy
chain: B1 chain
light: B1 light with S61K, L100P
notes: one-arm IgG1
B27: CE115HA000/GLS3000 Q90A one-arm antibody (antibody, human IgG1, kappa, L234A L235A, N297A, name in Kabat numbering)
heavy: B1 heavy
chain: B1 chain
light: B1 light with Q95A, L100P
notes: one-arm IgG1
B28: CE115HA000/GLS3000 S56I one-arm antibody (antibody, human IgG1, kappa, L234A L235A, N297A, name in Kabat numbering)
heavy: B1 heavy
chain: B1 chain
light: B1 light with S61I, L100P
notes: one-arm IgG1
B29: CE115HA000/GLS3000 S56W one-arm antibody (antibody, human IgG1, kappa, L234A L235A, N297A, name in Kabat numbering)
heavy: B1 heavy
chain: B1 chain
light: B1 light with S61W, L100P
notes: one-arm IgG1
B30: CE115HA000/GLS3000 R54G one-arm antibody (antibody, human IgG1, kappa, L234A L235A, N297A, name in Kabat numbering)
heavy: B1 heavy
chain: B1 chain
light: B1 light with R59G, L100P
notes: one-arm IgG1
B31: CE115HA000/GLS3000 S56D one-arm antibody (antibody, human IgG1, kappa, L234A L235A, N297A, name in Kabat numbering)
heavy: B1 heavy
chain: B1 chain
light: B1 light with S61D, L100P
notes: one-arm IgG1
B32: CE115HA000/GLS3000 R54E one-arm antibody (antibody, human IgG1, kappa, L234A L235A, N297A, name in Kabat numbering)
heavy: B1 heavy
chain: B1 chain
light: B1 light with R59E, L100P
notes: one-arm IgG1
B33: CE115HA000/GLS3000 S52P one-arm antibody (antibody, human IgG1, kappa, L234A L235A, N297A, name in Kabat numbering)
heavy: B1 heavy
chain: B1 chain
light: B1 light with S57P, L100P
notes: one-arm IgG1
B34: CE115HA000/GLS3000 S52Q one-arm antibody (antibody, human IgG1, kappa, L234A L235A, N297A, name in Kabat numbering)
heavy: B1 heavy
chain: B1 chain
light: B1 light with S57Q, L100P
notes: one-arm IgG1
B35: CE115HA000/GLS3000 R54P one-arm antibody (antibody, human IgG1, kappa, L234A L235A, N297A, name in Kabat numbering)
heavy: B1 heavy
chain: B1 chain
light: B1 light with R59P, L100P
notes: one-arm IgG1

target: T1, CD3 epsilon homodimer protein (UniProt P07766 23-126); test: SPR (Biacore T200), CD3e homodimer on CM4 chip, antibody as analyte; KD ratio vs unaltered GLS3000;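 further: CD3 epsilon homodimer amine-coupled to the sensor surface, antibodies injected as analyte at 25 °C with HBS-EP+ running buffer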
T1 construct: also called CD3 (CD3 epsilon)
T1 sequence (P07766 23-126): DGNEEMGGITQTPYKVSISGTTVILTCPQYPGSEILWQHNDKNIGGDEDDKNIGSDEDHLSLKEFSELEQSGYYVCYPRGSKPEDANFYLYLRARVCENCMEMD
Procedure: An appropriate amount of CD3 epsilon homodimer protein was immobilized onto Sensor chip CM4 (GE Healthcare Japan Corp.) by the amine coupling method. Then, the antibody having an appropriate concentration was injected thereto as an analyte and allowed to interact with the CD3 epsilon homodimer protein on the sensor chip. Then, the sensor chip was regenerated by the injection of 10 mmol/L glycine-HCl (pH 1.5). The assay was conducted at 25 degrees C., and HBS-EP+(GE Healthcare Japan Corp.) was used as a running buffer. […] Each parameter was calculated using Biacore T200 Evaluation Software (GE Healthcare Japan Corp.).
Specifically, when the amount of the GLS3000-containing antibody bound was defined as X and the amount of the L chain one-amino acid altered form bound was defined as Y, a value of Z (ratio of amounts bound)=Y/X was used.

Row | KD ratio to GLS3000 | Binder
1 | 11.7 ratio | B1
2 | 11.1 ratio | B2
3 | 1.02 ratio | B3
4 | 0.78 ratio | B4
5 | 1.01 ratio | B5
6 | 0.94 ratio | B6
7 | 0.72 ratio | B7
8 | 0.94 ratio | B8
9 | 0.98 ratio | B9
10 | 1.15 ratio | B10
11 | 0.91 ratio | B11
12 | 1.12 ratio | B12
13 | 1.03 ratio | B13
14 | 0.96 ratio | B14
15 | 1.04 ratio | B15
16 | 0.65 ratio | B16
17 | 1.8 ratio | B17
18 | 0.9 ratio | B18

Row | KD ratio to GLS3000 | Binder
19 | 0.89 ratio | B19
20 | 0.65 ratio | B20
21 | 0.91 ratio | B21
22 | 0.99 ratio | B22
23 | 1.05 ratio | B23
24 | 0.97 ratio | B24
25 | 0.93 ratio | B25
26 | 1.21 ratio | B26
27 | 0.89 ratio | B27
28 | 1.01 ratio | B28
29 | 1.12 ratio | B29
30 | 0.88 ratio | B30
31 | 1.11 ratio | B31
32 | 0.84 ratio | B32
33 | 7.38 ratio | B33
34 | 1.01 ratio | B34
35 | 1.05 ratio | B35
